Measurements taken from patent US20250076311A1 (Chugai, published 2025).

T1: cynomolgus monkey FcγRIIb extracellular domain with C-terminal His-tag (cynomolgus monkey)
T1 construct: also called cyno FcγRIIb; cynoFcγRIIb
T1 chain: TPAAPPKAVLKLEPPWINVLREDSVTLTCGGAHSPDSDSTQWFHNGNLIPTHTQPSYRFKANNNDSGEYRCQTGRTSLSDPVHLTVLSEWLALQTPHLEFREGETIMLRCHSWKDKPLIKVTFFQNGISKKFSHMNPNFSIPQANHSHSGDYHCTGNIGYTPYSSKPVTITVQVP

T2: cynomolgus monkey FcγRIIIaS extracellular domain with C-terminal His-tag (cynomolgus monkey, UniProt Q8SPW2 21-206 at identity 1.00))
T2 construct: also called cyno FcγRIIIaS; FcgRIIIaS
T2 chain: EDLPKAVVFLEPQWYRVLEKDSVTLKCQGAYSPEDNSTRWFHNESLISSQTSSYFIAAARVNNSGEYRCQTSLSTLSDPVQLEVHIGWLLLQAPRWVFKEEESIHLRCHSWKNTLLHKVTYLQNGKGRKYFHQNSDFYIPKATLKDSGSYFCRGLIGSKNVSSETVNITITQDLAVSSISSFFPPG

T3: human FcγRIIaR extracellular domain with C-terminal His-tag (human, UniProt P12318 34-217)
T3 construct: also called human FcγRIIa (type R); FcgRIIaR
T3 chain: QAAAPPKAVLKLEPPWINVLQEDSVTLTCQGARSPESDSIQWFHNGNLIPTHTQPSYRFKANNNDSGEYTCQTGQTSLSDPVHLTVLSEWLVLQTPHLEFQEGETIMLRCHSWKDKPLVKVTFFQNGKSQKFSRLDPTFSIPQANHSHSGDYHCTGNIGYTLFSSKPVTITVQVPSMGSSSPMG

T4: human FcγRIIb extracellular domain with C-terminal His-tag (human, UniProt P31994 43-217)
T4 construct: also called human FcgRIIb; FcgRIIb
T4 sequence: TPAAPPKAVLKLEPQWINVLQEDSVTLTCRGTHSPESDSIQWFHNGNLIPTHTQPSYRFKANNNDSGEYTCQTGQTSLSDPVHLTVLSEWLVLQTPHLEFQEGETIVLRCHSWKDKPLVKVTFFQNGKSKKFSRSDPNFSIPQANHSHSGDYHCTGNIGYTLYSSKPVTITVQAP

T5: human FcγRIIaH extracellular domain with C-terminal His-tag (human, UniProt P12318 34-217)
T5 construct: also called human FcγRIIa (type H); FcgRIIaH
T5 sequence: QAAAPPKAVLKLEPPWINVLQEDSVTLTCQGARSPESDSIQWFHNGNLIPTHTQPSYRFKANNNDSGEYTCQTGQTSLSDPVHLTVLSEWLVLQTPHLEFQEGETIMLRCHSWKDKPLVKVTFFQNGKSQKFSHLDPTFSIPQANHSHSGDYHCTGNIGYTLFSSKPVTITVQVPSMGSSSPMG


What was measured:
Test in all cases: SPR; KD of SG1 / KD of variant
[1] = target: T1, cynomolgus monkey FcγRIIb extracellular …
[2] = target: T2, cynomolgus monkey FcγRIIIaS …
[3] = target: T3, human FcγRIIaR extracellular domain …
[4] = target: T4, human FcγRIIb extracellular domain with …
[5] = target: T6, human FcγRIIIaV extracellular domain with C-terminal His-tag (human, UniProt P08637 17-208)
T6 construct: also called human FcgRIIIaV; FcgRIIIaV

[6] = target: T5, human FcγRIIaH extracellular domain …

T6 sequence (P08637 17-208 F176V): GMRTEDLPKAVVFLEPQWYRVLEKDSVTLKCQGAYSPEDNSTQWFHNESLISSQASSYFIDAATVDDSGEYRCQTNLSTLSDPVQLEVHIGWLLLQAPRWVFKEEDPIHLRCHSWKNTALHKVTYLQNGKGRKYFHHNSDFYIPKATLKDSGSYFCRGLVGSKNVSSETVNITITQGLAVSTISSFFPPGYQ

Binder | KD fold (SG1 = 1) [1] [fold] | KD fold (SG1 = 1) [2] [fold] | KD fold (SG1 = 1) [3] [fold] | KD fold (SG1 = 1) [4] [fold] | KD fold (SG1 = 1) [5] [fold] | KD fold (SG1 = 1) [6] [fold]
M103205H795-MY143 (heavy chain) with M103202L889-SK1 (light chain) (antibody, human IgG1, kappa, name in EU numbering, Substitutions introduced into M103205H795-SG1; positions in EU numbering) heavy: QVTLKESGPVLVKPTETLTLTCTVSGIDLSHDDISWVRQAPGKGLEWVGIISYAGSTYYASWAKGRLTISKDTSKNQVVLTMTNMDPVDTATYYCARGVPAYSHGGDLWGQGTLVTVSSASTKGPSVFPLAPSSKSTSGGTAALGCLVKDYFPEPVTVSWNSGALTSGVHTFPAVLQSSGLYSLSSVVTVPSSSLGTQTYICNVNHKPSNTKVDKKVEPKSCDKTHTCPPCPAPELLSGPSVFLFPPKPKDTLMISRTPEVTCVVVDVSEEDPEVKFNWYVDGVEVHNAKTKPREEQYNSTYRVVSVLTVLHQDWLNGKEYKCKVSNKALPAPIEKTISKAKGQPREPQVYTLPPSREEMTKNQVSLTCLVKGFYPSDIAVEWESNGQPENNYKTTPMVLDSDGSFFLYSKLTVDKSRWQQGNVFSCSVMHEALHNHYTQKSLSLSP light: DIVMTQSPATLSLSPGERATLSCTSSQSVYHANWLSWFQQKPGQPPKLLIYWASTLAYGVPSRFSGSGSGTDFTLTISSLQPEDAATYYCAGGYGGGRYAFGQGTKVEIKRTVAAPSVFIFPPSDEQLKSGTASVVCLLNNFYPREAKVQWKVDNALQSGNSQESVTEQDSKDSTYSLSSTLTLSKADYEKHKVYACEVTHQGLSSPVTKSFNRGEC | 3.9 | 1.29 | 13.1 | 6.8 | 0.51 | 
M103205H795-MY269 (heavy chain) with M103202L889-SK1 (light chain) (antibody, human IgG1, kappa, name in EU numbering, Substitutions introduced into M103205H795-SG1; positions in EU numbering) heavy: QVTLKESGPVLVKPTETLTLTCTVSGIDLSHDDISWVRQAPGKGLEWVGIISYAGSTYYASWAKGRLTISKDTSKNQVVLTMTNMDPVDTATYYCARGVPAYSHGGDLWGQGTLVTVSSASTKGPSVFPLAPSSKSTSGGTAALGCLVKDYFPEPVTVSWNSGALTSGVHTFPAVLQSSGLYSLSSVVTVPSSSLGTQTYICNVNHKPSNTKVDKKVEPKSCDKTHTCPPCPAPELLMGPSVFLFPPKPKDTLMISRTPEVTCVVVDVSDEDPEVKFNWYVDGVEVHNAKTKPREEQYNSTYRVVSVLTVLHQDWLNGKEYKCKVSNKALPKPIEKTISKAKGQPREPQVYTLPPSREEMTKNQVSLTCLVKGFYPSDIAVEWESNGQPENNYKTTPKVLDSDGSFFLYSKLTVDKSRWQQGNVFSCSVMHEALHNHYTQKSLSLSP light: DIVMTQSPATLSLSPGERATLSCTSSQSVYHANWLSWFQQKPGQPPKLLIYWASTLAYGVPSRFSGSGSGTDFTLTISSLQPEDAATYYCAGGYGGGRYAFGQGTKVEIKRTVAAPSVFIFPPSDEQLKSGTASVVCLLNNFYPREAKVQWKVDNALQSGNSQESVTEQDSKDSTYSLSSTLTLSKADYEKHKVYACEVTHQGLSSPVTKSFNRGEC |  | 1.64 |  |  |  | 2.8
M103205H795-MY270 (heavy chain) with M103202L889-SK1 (light chain) (antibody, human IgG1, kappa, name in EU numbering, Substitutions introduced into M103205H795-SG1; positions in EU numbering) heavy: QVTLKESGPVLVKPTETLTLTCTVSGIDLSHDDISWVRQAPGKGLEWVGIISYAGSTYYASWAKGRLTISKDTSKNQVVLTMTNMDPVDTATYYCARGVPAYSHGGDLWGQGTLVTVSSASTKGPSVFPLAPSSKSTSGGTAALGCLVKDYFPEPVTVSWNSGALTSGVHTFPAVLQSSGLYSLSSVVTVPSSSLGTQTYICNVNHKPSNTKVDKKVEPKSCDKTHTCPPCPAPELLHGPSVFLFPPKPKDTLMISRTPEVTCVVVDVSDEDPEVKFNWYVDGVEVHNAKTKPREEQYNSTYRVVSVLTVLHQDWLNGKEYKCKVSNKALPKPIEKTISKAKGQPREPQVYTLPPSREEMTKNQVSLTCLVKGFYPSDIAVEWESNGQPENNYKTTPKVLDSDGSFFLYSKLTVDKSRWQQGNVFSCSVMHEALHNHYTQKSLSLSP light: DIVMTQSPATLSLSPGERATLSCTSSQSVYHANWLSWFQQKPGQPPKLLIYWASTLAYGVPSRFSGSGSGTDFTLTISSLQPEDAATYYCAGGYGGGRYAFGQGTKVEIKRTVAAPSVFIFPPSDEQLKSGTASVVCLLNNFYPREAKVQWKVDNALQSGNSQESVTEQDSKDSTYSLSSTLTLSKADYEKHKVYACEVTHQGLSSPVTKSFNRGEC | 3.6 | 0.33 | 3 | 1.8 |  | 

More lines, now with the values ahead:

KD fold (SG1 = 1) [1] [fold] | KD fold (SG1 = 1) [2] [fold] | KD fold (SG1 = 1) [3] [fold] | KD fold (SG1 = 1) [4] [fold] | KD fold (SG1 = 1) [5] [fold] | KD fold (SG1 = 1) [6] [fold] | Binder
 | 0.49 |  |  |  | 5.3 | M103205H795-MY281 (heavy chain) with M103202L889-SK1 (light chain) (antibody, human IgG1, kappa, name in EU numbering, Substitutions introduced into M103205H795-SG1; positions in EU numbering) heavy: QVTLKESGPVLVKPTETLTLTCTVSGIDLSHDDISWVRQAPGKGLEWVGIISYAGSTYYASWAKGRLTISKDTSKNQVVLTMTNMDPVDTATYYCARGVPAYSHGGDLWGQGTLVTVSSASTKGPSVFPLAPSSKSTSGGTAALGCLVKDYFPEPVTVSWNSGALTSGVHTFPAVLQSSGLYSLSSVVTVPSSSLGTQTYICNVNHKPSNTKVDKKVEPKSCDKTHTCPPCPAPELLQGPSVFLFPPKPKDTLMISRTPEVTCVVVDVSDEDPEVKFNWYVDGVEVHNAKTKPREELYNSTYRVVSVLTVLHQDWLNGKEYKCKVSNKALPKPIEKTISKAKGQPREPQVYTLPPSREEMTKNQVSLTCLVKGFYPSDIAVEWESNGQPENNYKTTPPVLDSDGSFFLYSKLTVDKSRWQQGNVFSCSVMHEALHNHYTQKSLSLSP light: DIVMTQSPATLSLSPGERATLSCTSSQSVYHANWLSWFQQKPGQPPKLLIYWASTLAYGVPSRFSGSGSGTDFTLTISSLQPEDAATYYCAGGYGGGRYAFGQGTKVEIKRTVAAPSVFIFPPSDEQLKSGTASVVCLLNNFYPREAKVQWKVDNALQSGNSQESVTEQDSKDSTYSLSSTLTLSKADYEKHKVYACEVTHQGLSSPVTKSFNRGEC
 | 0.58 |  |  | 0.32 | 8.5 | M103205H795-MY274 (heavy chain) with M103202L889-SK1 (light chain) (antibody, human IgG1, kappa, name in EU numbering, Substitutions introduced into M103205H795-SG1; positions in EU numbering) heavy: QVTLKESGPVLVKPTETLTLTCTVSGIDLSHDDISWVRQAPGKGLEWVGIISYAGSTYYASWAKGRLTISKDTSKNQVVLTMTNMDPVDTATYYCARGVPAYSHGGDLWGQGTLVTVSSASTKGPSVFPLAPSSKSTSGGTAALGCLVKDYFPEPVTVSWNSGALTSGVHTFPAVLQSSGLYSLSSVVTVPSSSLGTQTYICNVNHKPSNTKVDKKVEPKSCDKTHTCPPCPAPELLTGPSVFLFPPKPKDTLMISRTPEVTCVVVDVSDEDPEVKFNWYVDGVEVHNAKTKPREEQYNSTYRVVSVLTVLHQDWLNGKEYKCKVSNKALPKPIEKTISKAKGQPREPQVYTLPPSREEMTKNQVSLTCLVKGFYPSDIAVEWESNGQPENNYKTTPKVLDSDGSFFLYSKLTVDKSRWQQGNVFSCSVMHEALHNHYTQKSLSLSP light: DIVMTQSPATLSLSPGERATLSCTSSQSVYHANWLSWFQQKPGQPPKLLIYWASTLAYGVPSRFSGSGSGTDFTLTISSLQPEDAATYYCAGGYGGGRYAFGQGTKVEIKRTVAAPSVFIFPPSDEQLKSGTASVVCLLNNFYPREAKVQWKVDNALQSGNSQESVTEQDSKDSTYSLSSTLTLSKADYEKHKVYACEVTHQGLSSPVTKSFNRGEC
